Patent US20250313633A1 (WUXI BIOLOGICS IRELAND, published 2025)

T1: human full-length B7H3 on MCF-7 cells (human, UniProt Q5ZPR3 29-534)
T1 chain: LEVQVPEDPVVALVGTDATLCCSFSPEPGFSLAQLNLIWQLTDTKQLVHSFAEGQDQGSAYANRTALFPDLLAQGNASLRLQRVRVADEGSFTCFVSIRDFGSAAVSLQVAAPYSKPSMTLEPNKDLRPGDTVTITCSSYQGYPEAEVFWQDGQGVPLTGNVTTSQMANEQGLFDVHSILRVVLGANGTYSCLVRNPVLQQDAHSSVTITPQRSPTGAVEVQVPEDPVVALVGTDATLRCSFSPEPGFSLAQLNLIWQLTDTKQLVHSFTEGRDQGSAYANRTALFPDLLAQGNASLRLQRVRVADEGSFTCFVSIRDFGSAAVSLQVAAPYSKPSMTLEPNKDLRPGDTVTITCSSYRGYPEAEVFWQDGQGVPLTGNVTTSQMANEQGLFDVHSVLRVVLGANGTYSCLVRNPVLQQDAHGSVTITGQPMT

B1: W301088-1.145.16-xIgG1KV320 (antibody, V domains shown)
VH: DVQLQESGPGLVKPSQSLSLTCTVTDYSITGDYAWNWIRQFPGNKLEWMGYISYSGSTSYNPSLQSRISITRDTSKNQFFLQLNSVTSEDTATYFCARSLGRRWYFVVWGAGTTVTVSA
VL: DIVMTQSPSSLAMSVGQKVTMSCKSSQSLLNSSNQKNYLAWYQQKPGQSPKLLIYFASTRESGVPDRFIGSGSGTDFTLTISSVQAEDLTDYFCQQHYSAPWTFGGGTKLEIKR
notes: also called the chimeric antibody; chimeric antibody
B2: Enoblituzumab (MacroGenics) (antibody, V domains shown)
VH: EVQLVESGGGLVQPGGSLRLSCAASGFTFSSFGMHWVRQAPGKGLEWVAYISSDSSAIYYADTVKGRFTISRDNAKNSLYLQMNSLRDEDTAVYYCGRGRENIYYGSRLDYWGQGTTVTVSS
VL: DIQLTQSPSFLSASVGDRVTITCKASQNVDTNVAWYQQKPGKAPKALIYSASYRYSGVPSRFSGSGSGTDFTLTISSLQPEDFATYYCQQYNNYPFTFGQGTKLEIKR
B3: W301088-1.145.16-z3-p1-uIgG1KV320 (antibody, V domains shown)
VH: QVQLQESGPGLVKPSQTLSLTCTVTDYSITGDYAWNWIRQHPGKGLEWIGYISYSGSTSYNPSLQSRVTISRDTSKNQFSLKLSSVTAADTAVYFCARSLGRRWYFVVWGQGTTVTVSS
VL: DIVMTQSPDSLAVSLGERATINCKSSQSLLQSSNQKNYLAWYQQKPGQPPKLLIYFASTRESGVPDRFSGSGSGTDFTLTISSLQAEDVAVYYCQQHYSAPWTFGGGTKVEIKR
notes: human IgG1 LALA, kappa; also called the final lead antibody; final lead

Legend:
[1] = target: T1, human full-length B7H3 on MCF-7 cells; test: FACS on MCF-7 cells
[2] = target: T1, human full-length B7H3 on MCF-7 cells; test: cell-based or functional assay
[3] = target: T1, human full-length B7H3 on MCF-7 cells; test: cell-based or functional assay

Row | Binder | Max MFI [1] [MFI] | Internalization on MCF-7, EC50 [2] [nM] | Internalization on MCF-7, Max MFI [2] [MFI] | internalization, EC50 [3] [nM]
1 | B1 | 19800 | 0.51 | 57200 | 
2 | B2 | 4640 | 1.95 | 39800 | 
3 | B3 | 19900 | 0.44 | 52300 | 0.51
